Measured values from the supplement of paper PMC10567573.

B1: VPS39 (parent)
chain: LRLENNHCHIEESEHVLKKAHKYS
B2: TOR1AIP2 (parent)
chain: AGQEGEDTLRRRLLAPEAGSHPQQ

Variants of: B1
Test: protein stability index of a GFP-peptide fusion (GPS, HEK-293T) (PSI 1-6); higher = more stable
Conditions: c terminus: a fixed tail appended
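Also: lentivirally expressed fusions sorted by FACS into six bins by GFP to DsRed ratio, PSI derived from sequencing read proportions per bin multiplied by bin number.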

Protein stability index: each site, then its substitutions
E14: L 2.16, M 1.73
N6: A 2.72, K 3.49, L 2.58, M 1.87
L3: M 3.13, V 2.38, Q 4.06, H 3.6, A 3.55
K19: V 2.4, Y 2.67, M 2.52, T 2.2
H7: D 2, A 2.79
I10: A 3.75, D 3.53
C8: W 2.4, K 3.3
A20: Q 1.45, C 2.04, I 1.61, N 2.38, S 2.19
H21: F 2.52, T 2.27, G 2.5, R 2, E 2.78, C 2.63, K 2.4
N5: V 1.48, L 2.23, G 1.91, F 1.27, D 1.94
E12: V 1.35, K 2.94, W 1.78
Y23: H 3.13, T 2.4, D 2.15, P 2.56, W 1.72
S24: R 2.38, E 3.82, G 2.84, C 2.17, P 1.74
R2: T 3.81, W 2.15, K 3.12, C 3.15, Y 2.79
E11: C 1.99, Y 3.06, Q 2.06, H 2.52, D 2.65, L 2.86, N 2.19
K22: Q 2.12, W 1.84, I 1.65
S13: I 1.32, P 2.63, L 1.95, W 1.01, V 2.76, N 2.12
K18: M 2.12, E 1.94, Q 2.42, G 2.08
L1: P 3.79, E 4.29, K 4.2, F 2.3, Y 4.1
L17: D 3.68, T 3.14, Q 2.4, N 2.48
H15: Y 2.41, R 2.86, F 2.53
V16: Y 1.9, Q 1.39, I 2.29, N 2.38, G 2.62
E4: T 2.56, M 2.65

Variants of: B2
Test: as above
Conditions: c terminus: a fixed tail appended

Protein stability index: each site, then its substitutions
R10: C 5.64, T 5.17, Y 4.53, W 4.37, E 5.4, Q 5.08, P 5.19, M 4.88, D 5.38, A 4.84, H 5.31, S 5.29, I 4.62, F 4.51, N 5.29, V 4.26, L 4.82, K 5.06, G 5.17
R11: N 4.6, K 2.81, P 5.65, V 3.27, H 2.4, E 4.6, T 3.98, M 2.22, Y 1.16, G 5.29, Q 3.78, I 2.85, D 5.21, L 2.85, W 2.12, S 4.4, C 3.77, F 2.02
E4: T 2.15, V 2.79, Q 2.17, C 2.16, F 1.79, N 1.65, D 2.02, I 1.74, W 2.35, G 2.21, K 1.85, Y 1.72, P 1.61, R 1.29, S 2.31, L 1.81, H 1.79, M 2.05
D7: Y 2.41, R 1.73, E 2.56, M 1.88, I 1.76, Q 2.39, C 1.54, N 1.97, F 2.47, L 2.73, S 2.04, T 3.15, V 1.76, K 2.57, G 2.12, H 2.73, P 4.24
L14: C 4.91, D 5.59, A 5.73
L13: Q 5.15, V 3.31, F 3.32, D 4.91, I 1.82, Y 4.14, N 5.55, R 5.04, K 5.21, A 3.81, E 5.53, M 2.22, H 4.82, P 5.6, W 3.21, C 3.48, S 5.22, T 5.03, G 5.55
R12: K 3.55, C 2.51, H 3.29, Q 2.87, E 4.75, S 3.03, F 1.83, M 1.8, G 4.97, D 4.7, A 2.65, I 1.93, T 2.35, P 5.19, L 2.56, N 3.89, Y 2.3, V 2.47
L9: E 4.58, C 4.29, M 3.69, H 4.71, N 4.61, G 4.89, V 3.8, A 4.4, S 5.06, F 3.61, D 4.17, K 3.87, W 2.41, T 4.59, I 2.33, R 4.45, Q 4.56, Y 3.67, P 4.27
T8: K 3.24, L 2.28, Y 3.17, C 2.42, N 1.67, W 1.5, R 2.71, A 2.41, E 2.79, H 3.12, Q 2.81, P 3.37, I 2.17, G 2.93, S 2.03, F 3.06, D 3.21, V 3.16, M 2.34
Q3: P 2.92, I 1.55, D 3.76, L 2.47, F 2.05, M 1.74, A 2.22, G 2.65, Y 1.37, C 1.34, R 1.09, S 2.31, K 2.02, W 2.14, N 1.82, E 3.17, T 2.47, V 2.27
A1: I 4.08, S 1.4, P 4.86, T 2.11, V 3.31, E 4.54, D 4.05, R 2.29, L 2, Q 2.57, N 2.5, K 2.54, H 3.53, Y 2.26, W 3.19, F 1.83, G 3.25
G5: C 3.6, Y 1.84, T 2.72, V 2.55, N 3.27, I 2.72, L 2.49, F 1.83, W 1.35, P 2.91, R 2.46, H 2.08, Q 2.99, S 2.03, K 2.46, M 1.97, E 2.72, A 2.44, D 3.43
E6: D 2.79, G 1.73, V 2.53, H 2.32, M 2.33, Q 2.37, P 2.88, L 1.94, S 2.59, R 3.06, N 3.08, Y 2.5, T 2.08, K 1.95, F 3.25, W 2.63, A 2.25, I 2.13
G2: R 2.91, M 1.55, P 1.51, N 3.23, V 1.67, H 3.58, C 1.6, K 3.32, E 2.74, Y 2.12, A 4.25, W 2.45, F 2.99, D 5.64, Q 1.64, I 2.19, S 2.71
